Molecular target: recombinant human PD-L1-Fc fusion protein (dimeric form) (human)
Assay: SEC; SE-HPLC of the two bought PD-L1 ligands (Supplementary Figure S1); conditions not given

- stoichiometry N: 2
Substance: recombinant human PD-L1-Fc fusion protein (dimeric form)
